Data: patent US10544441B2, “Method for biocatalytic whole cell reduction of dehydrocholic acid compounds, and 7-β-hydroxysteroid dehydrogenase mutants” (Pharmazell GmbH, priority 2014, dated 2020)
Changes are numbered by the printed parent chain. In names and notes the source's numbering stands.

B1: G39D: 7β-HSDH from Collinsella aerofaciens with substitution G39D, produced as described in WO 2012/080504 (protein)
chain: MNLREKYGEWGLILGATEGVGKAFCEKIAAGGMNVVMVDRREEKLNVLAGEIRETYGVETKVVRADFSQPGAAETVFAATEGLDMGFMSYVACLHSFGKIQDTPWEKHEAMINVNVVTFLKCFHHYMRIFAAQDRGAVINVSSMTGISSSPWNGQYGAGKAFILKMTEAVACECEGTGVDVEVITLGTTLTPSLLSNLPGGPQGEAVMKIALTPEECVDEAFEKLGKELSVIAGQRNKDSVHDWKANHTEDEYIRYMGSFYRD
B2: DF: 7β-HSDH mutant with amino acid substitutions G39D R40F compared to the wild type sequence (protein)
chain: B1 chain with R40F
B3: DFK: 7β-HSDH mutant with amino acid substitutions G39D R40F R41K compared to the wild type sequence (protein)
chain: B1 chain with R40F, R41K
B4: DFKG: 7β-HSDH mutant with amino acid substitutions G39D R40F R41K K44G compared to the wild type sequence (protein)
chain: B1 chain with R40F, R41K, K44G
B5: G39D R40I: previously reported 7β-HSDH double mutant G39D R40I, reference, previously most active mutant (protein)
chain: B1 chain with R40I

Tests used:
Assay type in all cases: biochemical
[1] = Enzyme kinetic study of 7β-HSDH mutants, DHCA kinetics with NADH as cofactor; conditions: 0.5 mM NADH; for vmax (maximal specific enzyme activity): substrate DHCA
Experimental: (§1) Enzyme activity determinations were performed at 30° C. in the microtiter plate photometer with a sample volume of 250 μL, in which the change in the NAD(P)H concentration (ε 340=6.22 mL μmol^−1 cm^−1) was monitored at a wavelength of λ=340 nm. Here, the activities were determined by linear regression in the part of the reaction proceeding linearly. For this, the sample to be tested was appropriately diluted with potassium phosphate buffer (50 mM, pH 8.0) and treated with substrate and cofactor. The final concentrations of substrate and cofactor were 10 mM DHCA and 100 μM NADPH for 7β-HSDH, 10 mM DHCA and 100 μM NADH for 3α-HSDH, and 200 mM glucose and 1000 μM NAD(P) for GDH.
The mutants created were assessed by means of enzyme kinetic studies. For the study of the DHCA kinetics, 0.5 mM NADH was used as the cofactor (FIG. 9), while for the study of the NADH kinetics, 10 mM DHCA was used as the substrate (FIG. 10). From the plots of the DHCA kinetics, the characteristic curve shapes of the Michaelis-Menten kinetics can be discerned for the 7β-HSDH mutants, and no substrate inhibition was observed. Accordingly, the classical Michaelis-Menten model (equation 1) was used for the evaluation of the kinetic parameters.
[formula] EAX: specific enzyme activity, U mg^−1=μmol min^−1 mg^−1 vmax: maximal specific enzyme activity, U mg^−1=μmol min^−1 mg^−1 cs: substrate or cofactor concentration, mol L^−1 Km: half-saturation concentration, mol L^−1

[2] = First activity assay of purified 7β-HSDH G39D with NADPH or NADH
Experimental: as §1, with “The final concentrations of substrate and cofactor were 10 mM DHCA and 100 μM NADPH for 7β-HSDH, 10 mM DHCA and 100 μM NADH for 3α-HSDH, and 200 mM glucose and 1000 μM NAD(P) for GDH.” left out
The G39D mutant of the 7β-HSDH was produced as described in WO 2012/080504. The protein was expressed with an N-terminal His tag and purified by IMAC.

[3] = Single-stage biotransformation of DHCA to 3,12-diketo-UDCA with purified NADH-dependent 7β-HSDH mutants; conditions: after 16 hrs; 0.2 mg mL^−1 7β-HSDH, 10 U mL^−1 GDH, 0.5 mM NAD, 50 mM DHCA, pH 8.0, 30° C.

Molecule	Km [1]	vmax (maximal specific enzyme activity) [1]	NADH activity [2]	NADPH activity ([2]; 10 mM DHCA, 0.5 mM NADPH and pH 8.0)	vmax (maximal specific enzyme activity) ([1]; listed as 7β-HSDH DFK)	conversion of DHCA to 3,12-diketo-UDCA [3]	vmax (maximal specific enzyme activity) ([1]; listed as 7β-HSDH DFKG)
B1	660 ± 120 µM	2.90 ± 0.16 U mg^−1	marked NADH activity	0.040±0.005 U mg^−1	–	–	–
B2	420 ± 60 µM	3.70 ± 0.13 U mg^−1	–	–	–	–	–
B3	290 ± 50 µM	5.91 ± 0.23 U mg^−1	–	–	5.91±0.23 U mg^−1	–	–
B4	380 ± 50 µM	5.72 ± 0.19 U mg^−1	–	–	–	complete conversion	5.72±0.19 U mg^−1
B5	920 ± 170 µM	4.64 ± 0.27 U mg^−1	–	–	–	–	–
